Each sequence was assayed on K4 kissing-loop RNA reporter (assay: apparent KD of K4 kissing-loop reporter; higher = weaker reporter binding). Conditions: Eterna round: R107; input ligand: arginine 13.2 mM.
Protocol: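 RNA-MaP round R107: designed RNA switches with theophylline, tryptophan, arginine or FMN aptamers are transcribed on-chip within common flanks. They are titrated with a labelled K4 kissing-loop RNA reporter in RNA-MaP buffer (100 mM Tris pH 7.5, 80 mM KCl, 4 mM MgCl2), without ligand or with the indicated ligand. Median apparent KD per design.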
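Further: bound reporter read as fluorescence of individual clusters on recovered sequencing chips by microscopy, with normalized cluster intensities fitted with a binding model.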

Sequence	apparent KD of K4 kissing-loop reporter [nM]
AGACUAUCGUCAAAGACGGUAGUCAAAAGUGAGGAUAUAGUGAUGUUUAGAAGGCACUAAGACUGUAUCGAAUAGAUACGGUCAA [FmnA 1 #K4BetweenAptamer #OpenEnded]	1320
AAUAAUCUAGGUGAUACCAGCUCAACAUGAGUGAUGUUCAUGAACUAAUGUAGAGUUGAGAGCCCUUGGCAGCACCUAGAUAAUA [KL-SSTheoB6]	792
CCGCCAUCAUCAGAUACCAGACUGAUGGCGGUAACCGCCAAGCGAGUGAUGUUCGCAUCAGUCCCUUGGCAGCUGAUGAAGACUG [Theo B SS t4]	82.4
GGAUGGUAGGCGGCCGCCACUAAAACUGAACACAUACAAGCCAGUGAUGUUGGUAUGAUGGAGUAUAGGACCGGGCCUAGAUAGA [Exclusion - Tryptophan B (Freestyle 4)]	367
UGUGUUGUUGUGAUGUUUGGUGUUGUAGGGCAGGAUAUCGUAGAGGCGAGAAGGGCUUGUGGGCGGUAUGAGUGAUGUUUGUAGG [cfiuxmullin]	77.6
UGCAGUGAUGUUGCGAGUGGCAGAUACGAAGGAGCGUGGUGAGACACAGGUAGGUCGCGUAUUGAAAUUGCUGUCACUAAAAUGC [#7]	469

Same assay, conditions: Eterna round: R107; input ligand: none

Sequence	apparent KD of K4 kissing-loop reporter [nM]
AGCGCUGCCUGAGGAUAUAGAGACGAGUGAUGUUCGUGGAUUGAUACCAGUGAUGUUGGUCUAUUUCUAGAAGGCAGGCGAUCGU [Exclusion FMN B GF 3]	103
UAGGGCAUCGCAGGAUAUCCUGCUUAACGUUGGAUUCCAGUGAUGUUGGAAAGUCGGCCUAGGGUAGGAGAAGGGCGAACUUGAA [Maxean]	194
AUGUAUGAAUUAGGAUAUCGUGAGCCAUGCAUAUAUAUGAUAAAUGGAUAUGUCGUAGUGAUGUUACGAGAAGGAGUGUGGAGUA [KL-XFMN-B2]	74.7
AGGGACUCUUCGGAGUCCCGGUCAAGGGAUACCAGUGAUGUUGGUCACCCUUGGCAGCCCAGAAACCAAGCCACCAAAGGUGGCA [Omei KL Theo A Exc A v3]	97.3
AGCCGAAAGGCGAGUGCUGUCACUCCGGAAGGAGCGCUCAAAAGAGCAGGUAGGUCGCCGGAGUGAUGUUCCGGUGCAGCACUCA [Omei KL Arginine A Exc B v4]	580
CCCUCACGAGUGAUGUUCGUAGGGUACAGUCAGGAUAUCAUGCGGUUGAGAAGGGACAGAGAGGGCGGCCACGGGUUGCUCCUCU [Lariusteza]	386
AUGUGGAGCGACGUUUCGGGAUAUCGGGAAGGAGCGCUGAUAACGGCAGGUAGGUCGCCUGGUCCAGUGAUGUUGGGCAUGCAUU [Exclusion Arg A GF 24]	270
CGACGCCGGUCGGCCGCCACUCACAGCAGCCAGUGAUGUUGGAUUGUAGCGGAGUGAUGUUUCGCGAGGACCGGGACUGCAGUCG [Same State Tryptophan B GF 12]	129
GGCAGUGAUGUUGCCUUCGCAAUGCAUGCAGAGGAUAUUCGUUUGGGAAGAAGGCUGCAGCGUUCUCUCGAGUGAUGUUCGGGUG [Same State FMN A GF 19]	195
UUGCCUUUGAGCGAUACCAGCAGCGUCGGCCUUAGAUUGGGAGGCAUGGCAAGUGAUGUUUGCCCUUGGCAGCGCGUAUAGUACA [theeternabot_exclusion_KL_Theo_B_7]	459
GCCUAGCAGGGAAGGAGCGCCAUAAGAAGUAAAGGAGGGAGUUGAGUGAUGUUCAAAAUGUGGCAGGUAGGUCGCCCUGCUAGGC [KL-SSArg B13]	635
UGUCAUUGGUCUGAUACCAGUCCCUUGGCAGCCUAAAGGAGUGAUGUUCCAAGGAUACCAGACCCUUGGCAGCAGACCGAUGACU [TheoBS 28 #DoubleAptamer #SwitchBubble]	360
AAGAGCCUCAAGAGGCAGUAUCUGCCUCAACGAGGACCGGUACGGCCGCCACUCGAAUAAUAGAGUGAUGUUCUAAGAGGCUCAA [AK8 SS Tryptophan A]	586
UUUCGCUUCGUCUGAUAUAAUUGGCCAGAAGGAGCGGUAGAAUUACCAGGUAGGUCGCUGGCCCAGUGAUGUUGGGACUAGCGUG [Isrianve]	104
UGAUACCAGACGGCCGCCACUACACCAGUCAAAGACUGGAUGUGAUGUUCGACCAGUGAUGUUGGUAGGACCGGGUCUGGUAUCU [TrypBX 7 #Palindromic #SwitchBubble #StaticStem]	127
UUUGGAAGCGGUGUUGAUUAGGGAGCGGAAGGAGCGCCGAGGAGGGCAGGUAGGUCGCCGGAAUGUAGUGAUGUUGCAUAGAGGU [ExArgA.Aa]	214
UGACUGGACUGAAGGAGCGCUAAACUCCUAGUGAUGUUAGGGAAACGAGACAAAGUCUCGAGGCAGGUAGGUCGCAGUCUAGUCU [FiskerMod 1 - Jieux - Same State - Arginine B]	261
CUAUCUUAAGAAGGAUAUUAUGUAACAAACGCAGGCGUAUUAGAAUCAGUGAUGUUGAAAUAGGUUUAAGAAGGUCUUAAAGAAA [theeternabot_sameState_KL_FMN_B_31]	326
ACCAAUUUACCGGCAGUAGUGAUGUUACUCCGAGGACCGGUACGGCCGCCACUCGCGAACGUAGGGUUUCUGACUCGAAGAGUCU	171
GGCAGUGAUGUUGCCAGUGGCAGAUGUGAAGGAGCGCGGUGAGACGCAGGUAGGUCGCACAUUGAAAUUGCUGUCACUAAAAUGC [#02 K4 Arginine A Exclusion]	273
AGGCGGCAUAAUUGACUGAAAAGAAAUUAACGAGGACCGGUACGGCCGCCACUCGAACACCAGUGAUGUUGGUAUGGGAUAAUUU [Exclusion Tryptophan A GF 18]	52.9
